Experiment [1] deals with T1, JAMA on CHO cells (CHO-JAMA transfectants) (UniProt Q9Y624 28-299, limits assumed).
T1 construct: whole, on cells; Construct not described
T1 sequence (looked up): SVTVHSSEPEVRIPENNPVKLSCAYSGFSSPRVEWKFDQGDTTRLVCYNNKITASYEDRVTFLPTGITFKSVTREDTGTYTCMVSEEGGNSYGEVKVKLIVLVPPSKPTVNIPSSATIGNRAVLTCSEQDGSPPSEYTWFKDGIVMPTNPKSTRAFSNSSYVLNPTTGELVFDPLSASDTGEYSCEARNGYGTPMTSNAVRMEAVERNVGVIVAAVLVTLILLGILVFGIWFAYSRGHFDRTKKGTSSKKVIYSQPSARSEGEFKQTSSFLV
Kind of experiment: staining of CHO-JAMA transfectants.

The target of another experiment is T2, JAMA-Fc (UniProt Q9Y624 28-238, limits assumed).
T2 construct: the construct is not described; not shown: Fc tag
T2 sequence (looked up): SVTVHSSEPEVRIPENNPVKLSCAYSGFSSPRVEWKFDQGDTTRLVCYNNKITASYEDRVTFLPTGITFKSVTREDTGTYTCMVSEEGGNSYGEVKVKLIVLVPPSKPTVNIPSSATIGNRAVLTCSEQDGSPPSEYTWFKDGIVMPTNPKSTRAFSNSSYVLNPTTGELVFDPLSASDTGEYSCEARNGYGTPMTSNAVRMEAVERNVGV
Kind of experiment: ELISA, antigen coated at 5 µg/ml. On the technique in general: An ELISA detects its analyte on a solid surface through an enzyme-linked reagent.

A further experiment deals with T3, EVA-His (UniProt O60487 27-154, limits assumed).
T3 construct: Construct not described; also called EVA1; not shown: His tag
T3 sequence (looked up): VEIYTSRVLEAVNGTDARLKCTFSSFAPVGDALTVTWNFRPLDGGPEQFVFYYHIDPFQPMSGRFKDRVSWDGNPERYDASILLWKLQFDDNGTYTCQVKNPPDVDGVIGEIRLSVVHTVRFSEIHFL
In words: ELISA, antigen coated at 5 µg/ml.

For a further experiment, the target named is T4, JAMC_Fc (UniProt Q9BX67 32-241, limits assumed).
T4 construct: Construct not described; not shown: Fc tag
T4 sequence (looked up): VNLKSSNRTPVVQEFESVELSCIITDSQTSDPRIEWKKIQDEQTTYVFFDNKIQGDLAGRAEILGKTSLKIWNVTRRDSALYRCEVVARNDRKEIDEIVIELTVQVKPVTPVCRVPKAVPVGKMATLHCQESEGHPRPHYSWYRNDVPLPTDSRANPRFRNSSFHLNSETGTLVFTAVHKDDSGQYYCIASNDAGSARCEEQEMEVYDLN
Kind of experiment: ELISA, antigen coated at 5 µg/ml.

The next experiment deals with T5, CLMP-Fc (UniProt Q9H6B4 19-235, limits assumed).
T5 construct: Construct not described; also called CAR-like membrane protein; not shown: Fc tag
T5 sequence (looked up): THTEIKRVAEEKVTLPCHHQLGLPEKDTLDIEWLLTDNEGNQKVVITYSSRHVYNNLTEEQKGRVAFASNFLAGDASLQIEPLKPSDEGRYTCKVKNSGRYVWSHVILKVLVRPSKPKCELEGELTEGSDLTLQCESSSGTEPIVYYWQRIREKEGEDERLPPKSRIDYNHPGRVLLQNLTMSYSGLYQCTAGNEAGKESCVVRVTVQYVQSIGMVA
Kind of experiment: ELISA, antigen coated at 5 µg/ml.

The target in a further experiment is T6, JAMA-GST (UniProt Q9Y624 28-238, limits assumed).
T6 construct: Construct not described; not shown: GST tag
T6 sequence (looked up): T2 sequence (looked up)
Kind of experiment: ELISA, antigen coated at 5 µg/ml.

In another experiment the target is T7, SIRPA-HIS (UniProt P78324 31-370, limits assumed).
T7 construct: Construct not described; not shown: His tag
T7 sequence (P78324 31-370 limits assumed): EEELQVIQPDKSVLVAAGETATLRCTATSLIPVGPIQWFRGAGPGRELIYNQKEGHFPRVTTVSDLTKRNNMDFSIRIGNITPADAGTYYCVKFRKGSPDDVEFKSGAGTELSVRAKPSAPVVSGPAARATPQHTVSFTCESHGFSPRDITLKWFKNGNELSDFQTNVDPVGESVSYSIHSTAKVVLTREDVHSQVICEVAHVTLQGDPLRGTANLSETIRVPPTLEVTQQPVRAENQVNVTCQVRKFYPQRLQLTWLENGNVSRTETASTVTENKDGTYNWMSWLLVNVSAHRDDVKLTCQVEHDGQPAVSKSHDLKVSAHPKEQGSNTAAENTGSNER
Kind of experiment: ELISA, antigen coated at 5 µg/ml.

Another experiment concerns the target BSA (UniProt P02769 25-607). In words: ELISA, antigen coated at 5 µg/ml.
In experiment [2] the target is T8, purified extracellular domain of CAR tagged with GST (CAR-GST) (UniProt P78310 20-237, limits assumed).
T8 construct: extracellular domain; also called soluble CAR; sCAR; not shown: GST tag
T8 sequence (looked up): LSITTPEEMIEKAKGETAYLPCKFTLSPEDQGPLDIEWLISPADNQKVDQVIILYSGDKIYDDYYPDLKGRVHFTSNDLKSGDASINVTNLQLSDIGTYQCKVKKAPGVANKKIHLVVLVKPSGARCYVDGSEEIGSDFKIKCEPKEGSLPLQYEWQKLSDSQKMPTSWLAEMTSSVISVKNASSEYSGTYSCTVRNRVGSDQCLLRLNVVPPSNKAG
In words: ELISA, antigen coated at 5 µg/ml.

The record followed here is patent publication US20140242068A1 (EMORY UNIVERSITY, published 2014).

Chain of BSA (P02769 25-607 limits assumed): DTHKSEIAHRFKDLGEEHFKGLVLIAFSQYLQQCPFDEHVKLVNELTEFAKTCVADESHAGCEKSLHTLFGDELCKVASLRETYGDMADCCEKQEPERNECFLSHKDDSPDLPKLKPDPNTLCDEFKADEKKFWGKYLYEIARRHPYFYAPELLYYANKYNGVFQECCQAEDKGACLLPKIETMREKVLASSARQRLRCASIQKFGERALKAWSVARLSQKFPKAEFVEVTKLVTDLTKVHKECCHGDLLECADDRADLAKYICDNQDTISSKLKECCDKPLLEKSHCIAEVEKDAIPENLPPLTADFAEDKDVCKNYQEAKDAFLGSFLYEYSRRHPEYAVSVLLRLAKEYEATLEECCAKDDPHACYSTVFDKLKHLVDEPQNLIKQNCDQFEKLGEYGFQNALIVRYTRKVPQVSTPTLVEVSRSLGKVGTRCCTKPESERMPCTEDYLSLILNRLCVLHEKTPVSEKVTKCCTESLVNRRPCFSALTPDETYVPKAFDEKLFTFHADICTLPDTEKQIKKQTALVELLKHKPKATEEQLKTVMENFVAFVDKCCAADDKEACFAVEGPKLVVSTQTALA

B1: DW216 (antibody, IgG1, V domains shown)
VH: DVQLVESGPGLVKPSQSLSLTCTVTGYSITSDYAWNWIRQFPGNKLEWMGYISSSGNSNYNPSLKSRISITRDTSKNQFFLQLNSVTTEDTATYYCAGATGYSMDYWGQGTTLTVK
VL: VLTQSPAIMSASLGERVTMTCTASSSVSSSYLHWYQQKPGSSPKLWIYSTSNLASGVPARFSGSGSGTSYSLTISSMEAEDAATYYCHQYHRSPFTFGSGTKLELK
notes: also called DW216 mAb; H3L3
As for B1, the binding result in experiment [1] is recorded as “no binding”; in the experiment with JAMA-Fc it was “no binding (tested: antibody 10 µg/ml)”; in the experiment with EVA-His it was “no binding (tested: antibody 10 µg/ml)”; in the experiment with JAMC_Fc it was “no binding (tested: antibody 10 µg/ml)”; with CLMP-Fc it was “no binding (tested: antibody 10 µg/ml)”; with JAMA-GST it was “no binding (tested: antibody 10 µg/ml)”. In addition, the binding result (with SIRPA-HIS; with BSA; in experiment [2]) was “no binding (tested: antibody 10 µg/ml)” in each case.

B2: DW100 (antibody, IgG1, V domains shown)
VH: DVQLVESGAELVRPGASVKLSCKALAYTFTDYEMHWVKQTPVHGLEWIGIIHPGSGGTVYNQKFKGKATLTADKSSSTAYMELSSLTSEDSTVYYCTRRRYYGSSYWYFDVWGAGN
VL: VLTQSPASLAASVGETVTITCRASENIYYSLAWYQQKQGKSPQLLIYNANSLEDGVPSRFSGSGSGTQYSLKINSMQPEDTATYFCEQTYDVPLTFGAGTKLEL
notes: also called DW100 mAb; anti-JAML monoclonal antibody DW100
Consider B2, for which the binding result was “no binding” in experiment [1]; “no binding (tested: antibody 10 µg/ml)” with JAMA-Fc; “no binding (tested: antibody 10 µg/ml)” with EVA-His; “no binding (tested: antibody 10 µg/ml)” with JAMC_Fc; “no binding (tested: antibody 10 µg/ml)” with CLMP-Fc; “no binding (tested: antibody 10 µg/ml)” in the experiment with JAMA-GST. The binding result (with SIRPA-HIS; with BSA; in [2]) was “no binding (tested: antibody 10 µg/ml)” throughout.
